Experimental data published in patent US20170130205A1, “METHOD FOR PREPARING INDUCED PLURIPOTENT STEM CELLS” (TAIPEI VETERANS GENERAL HOSPITAL, priority 2014, published 2017).

What was measured:
Format in all cases: cell-based, human
FD-iPSC-CMs [1] = assay: MED64 multi-electrode field potential recording of beating iPSC-derived cardiomyocytes (Fabry); conditions: post-induction day 60
Description: (§1) The recording area of probes with 64 recording electrodes (MED probe; MED-P515A, Alpha Med Scientific, Osaka) for the MED64 System (Alpha Med Scientific) was coated with 2 ml of 0.1% gelatin that had been incubated at 37° C. for 1 hour. Beating iPSC-derived CMs were transferred onto the MED-probe dishes, and the electrical potentials were recorded with the MED64 multi-electrode array system. […] To evaluate the compounds, a cluster was treated with a compound in stepwise concentration increments. The medium was perfused at 1.7 ml/min at 37° C., and the field potentials were measured for 5 min.

Ctrl-iPSC-CMs = assay: MED64 multi-electrode field potential recording of beating iPSC-derived cardiomyocytes (control); conditions: post-induction day 60, isoproterenol 0, 1, 10 μM
Description: as §1

ESC-CMs, Ctrl-iPSC-CMs = assay: Alox12/Alox15 protein expression on Gb3 treatment (Western blot, immunofluorescence), control cells; conditions: post-induction day 20, Gb3 15 μmole/L, 24 hours
Description: (§2) The extraction of proteins from cells and western blot analysis were performed as described previously (Yang et al., Inhibition of cancer stem cell-like properties and reduced chemoradioresistance of glioblastoma using microrna145 with cationic polyurethane-short branch pei. Biomaterials. 2012; 33:1462-1476). Whole cell lysates were separated by electrophoresis on 12% SDS-PAGE and transferred to a polyvinylidene fluoride membrane. The membranes were blocked with 5% nonfat milk at room temperature for 1 hour. The blots were incubated with primary antibodies in TBST buffer containing 3% nonfat milk at 4° C. overnight and subsequently with secondary antibodies conjugated with peroxidase at 25° C. for 1 hour. The immunoblots were developed using an enhanced chemiluminescence system, and the luminescence was visualized on X-ray film.
(§3) The living cells and spheres were fixed in 4% paraformaldehyde, permeabilized in 0.1% Triton X-100, and blocked in 5% normal goat serum in PBS. […] The total amount of retained autofluorescent material was determined in the red (546) and green (488) channels by quantifying the pixel area (Adobe Photoshop/Image J software). The cellular area contents of the normal iPSC-CMs and the FD-iPSC-CMs were quantified using the ImageJ software package (National Institutes of Health, Bethesda, MD).

FD-iPSC-CMs [2] = assay: Alox12/Alox15 protein expression on Gb3 treatment (Western blot, immunofluorescence), Fabry cells; conditions: FD-iPSC-CMs (Pt1 to Pt8), post-induction day 20; Gb3 15 μmole/L, 24 hours; vs ESC-CMs and Ctrl-iPSC-CMs
Description: as §2, §3

FD-iPSC-CMs [3] = assay: ELISA of 12-HETE/15-HETE secretion into conditioned medium on Gb3 treatment, Fabry cells; conditions: FD-iPSC-CMs (Pt1 to Pt8); Gb3 15 μmole/L, 24 hours
Ctrl-iPSC-CMs or ESC-CMs = assay: ELISA of 12-HETE/15-HETE secretion into conditioned medium on Gb3 treatment, control cells; conditions: Gb3 15 μmole/L, 24 hours
[4] = tested on: ESC-CMs, Ctrl-iPSC-CMs, FC-iPSC-CMs; assay: GLA enzyme activity in cardiomyocytes with administration of GLA; conditions: day 20 post-induction; GLA 5 μg/ml for 5 days; all experimental cells
Description: Cells were washed twice with PBS, incubated in 200 μl of fresh medium at 37° C. and 5% CO2 for 2 hours, and washed twice with PBS. Afterward, the cells were lysed in 60 μl of Lysis Buffer (27 mM of sodium citrate, 46 mM of sodium phosphate dibasic, 0.5% Triton X-100, pH 4.6). Lysates (10 μl) were added to 50 μl of Assay Buffer (Lysis Buffer without Triton X-100) containing 6 mM of 4-MUG and 117 mM of N-acetyl-D-galactosamine (GalNac, an inhibitor of -N-acetylgalactosaminidase, which is a lysosomal enzyme present in cell lysates that hydrolyzes 4-MUG) and incubated at 37° C. for 1 hour. The Stop Solution (0.4 M glycine, pH 10.8; 70 μl) was added, and the fluorescence was read on a Victor plate reader (Perkin-Elmer, Waltham, Mass.) at 355 nm excitation and 460 nm emission. A Micro BCA Protein Assay Kit (Pierce, Rockford, Ill.) was used according to the manufacturer's instructions to determine the protein concentration from 40 μl of cell lysate from each well. The total protein amount in each well was used to normalize the enzyme activity. A 4-methylumbelliferone (4-MU) standard curve ranging from 1.3 nM to 30 μM was run in parallel to calculate the absolute -Gal A activity, expressed as nmol of 4-MU released/mg protein/hour (nmol/mg protein/hour), which was normalized to the percentage of the untreated wild-type (% WT) enzyme activity. […]

FC-iPSC-CMs [5] = assay: Cell size of FC-iPSC-CMs by quantification of cTnT-positive margins; conditions: early-administration: 5 μg/ml GLA day 20 to day 60
Description: (§4) The living cells and spheres were fixed in 4% paraformaldehyde, permeabilized in 0.1% Triton X-100, and blocked in 5% normal goat serum in PBS. After being washed three times with PBS, the cells were incubated with goat anti-mouse secondary antibodies conjugated with FITC (green) or PE (red). DAPI (blue) was used as the nuclear stain. Labeled cells were imaged with a laser-scanning confocal microscope (Olympus). The total amount of retained autofluorescent material was determined in the red (546) and green (488) channels by quantifying the pixel area (Adobe Photoshop/Image J software). The cellular area contents of the normal iPSC-CMs and the FD-iPSC-CMs were quantified using the ImageJ software package (National Institutes of Health, Bethesda, MD).
(§5) However, the interrelationship between treatment onset and the efficacy of ERT drugs in FC with fibrotic progression remains unclear. Therefore, we compared the treatment efficacy of GLA between early (5 μg/ml of GLA from day 20 to day 60 post-differentiation; FIG. 13C) and late (5 μg/ml of GLA from day 40 to day 60 post-differentiation; FIG. 13D) administrations in FC-iPSC-CMs, and evaluated the levels of cardiac Alox12/15 and fibrotic markers at day 60 post-differentiation. […] We therefore tested the treatment efficacy of the pharmacological inhibition of cardiac Alox12/15 in combination with ERT (FIG. 15).

FC-iPSC-CMs [6] = assay: Secreted levels of LysoGb3, 12(S)-HETE and 15(S)-HETE from FC-iPSC-CMs
Description: For liquid chromatography for lysoGb3 and Gb3 analysis, we used Waters Alliance 2795XE HPLC system to perform stepwise gradient elution. The flow rate was 0.3 mL/min in lysoGb3 or Gb3 experiment. Mass spectrometry of lysoGb3 and Gb3 detection was performed in positive ion mode (ES+) on a triple quadruplemass spectrometer (Quattro Ultima, Waters, Milford, Mass.) with NeoLynx software version 4.1. The analyzing methods were modified from the protocol provided by Shire Human Genetic Therapies. LC-MS/MS analysis was performed using an LTQ Orbitrap (Thermo Fisher Scientific) as described previously.
Whole blood samples were collected into 1.8 mg/ml EDTA-K3 tubes and centrifuged at 2500×g for 20 min at room temperature to obtain the plasma samples. The aliquots were stored at −80° C. until use. Enzyme-linked immunoassays (ELISAs) were used for 15(S) HETE (Cayman Chemicals) and 12(S) HETE (Detroit R&D) quantification according to the manufacturers' instructions (Detroit R&D).
as §5

FC-iPSC-CMs [7] = assay: Immunofluorescence of Alox12/15 and fibrotic markers in FC-iPSC-CMs under ERT; conditions: read at day 60
Description: as §4, §5

[8] = early-administration of GLA, day 60, vs untreated cells
[9] = late-administration of GLA, day 60

CC(C)NCC(O)c1ccc(O)c(O)c1 (stereo not shown) [Isoproterenol, isoproterenol]
electrophysiological response (beating frequency) to the drug (FD-iPSC-CMs [1]): random occurrences of arrhythmias | effect on beating frequency of contractile colonies (Ctrl-iPSC-CMs): dose-dependent chronotropic effect

globotriaosylceramide [Gb3]
Alox12 and Alox15 protein expression (ESC-CMs, Ctrl-iPSC-CMs): increased | Alox12/Alox15 protein expression (FD-iPSC-CMs [2]): upregulation of Alox12/Alox15 at higher magnitudes | secretion of 12-HETE and 15-HETE (FD-iPSC-CMs [3]): largely stimulated | secretion of 12-HETE/15-HETE (Ctrl-iPSC-CMs or ESC-CMs): mildly increase

B1: α-galactosidase A (protein, UniProt P06280 32-429, looked up)
Alpha-galactosidase A: LDNGLARTPTMGWLHWERFMCNLDCQEEPDSCISEKLFMEMAELMVSEGWKDAGYEYLCIDDCWMAPQRDSEGRLQADPQRFPHGIRQLANYVHSKGLKLGIYADVGNKTCAGFPGSFGYYDIDAQTFADWGVDLLKFDGCYCDSLENLADGYKHMSLALNRTGRSIVYSCEWPLYMWPFQKPNYTEIRQYCNHWRNFADIDDSWKSIKSILDWTSFNQERIVDVAGPGGWNDPDMLVIGNFGLSWNQQVTQMALWAIMAAPLFMSNDLRHISPQAKALLQDKDVIAINQDPLGKQGYQLRQGDNFEVWERPLSGLAWAVAMINRQEIGGPRSYTIAVASLGKGVACNPACFITQLLPVKRKLGFYEWTSRLRSHINPTGTVLLQLENTMQMSLKDLL
notes: enzyme used as enzyme replacement therapy (ERT) in the FC-iPSC-CM platform
GLA activity in cells [4]: elicited high GLA activity | cell size of FC-iPSC-CMs (FC-iPSC-CMs [5]): prominently reduced | secreted level of 12-HETE (FC-iPSC-CMs [6]; [8]): significantly suppressed | secreted level of 15-HETE (FC-iPSC-CMs [6]; [8]): significantly suppressed | secreted level of lysoGb3 (FC-iPSC-CMs [6]; [8]): significantly suppressed | secreted level of lysoGb3 (FC-iPSC-CMs [6]; [9]): significant reduction | secretion of 12(S)-HETE (FC-iPSC-CMs [6]; [9]): negligible inhibitory effect | secretion of 15(S)-HETE (FC-iPSC-CMs [6]; [9]): negligible inhibitory effect | expression levels of Alox12/15 and fibrotic biomarkers MMP1, TGF-β and collagen1 (FC-iPSC-CMs [7]; early-administration: 5 μg/ml GLA day 20 to day 60): suppressed | fibrotic protein expression (FC-iPSC-CMs [7]; late-administration: 5 μg/ml GLA day 40 to day 60): negligible inhibitory effect
